# Reference: patent US20130136748A1 (Ablynx, published 2013)
# Several values for one entry are separate records, joined by “and”; a condition that tells them apart may be missing. Identical values can stand only once.
# T1: Chimeric chicken Her3-human domain 1 (AA1-206 human, AA207-642 chicken) (chicken/human chimera)
# T1 construct: Transmembrane and extracellular regions, on HEK293 cells
# T1 chain: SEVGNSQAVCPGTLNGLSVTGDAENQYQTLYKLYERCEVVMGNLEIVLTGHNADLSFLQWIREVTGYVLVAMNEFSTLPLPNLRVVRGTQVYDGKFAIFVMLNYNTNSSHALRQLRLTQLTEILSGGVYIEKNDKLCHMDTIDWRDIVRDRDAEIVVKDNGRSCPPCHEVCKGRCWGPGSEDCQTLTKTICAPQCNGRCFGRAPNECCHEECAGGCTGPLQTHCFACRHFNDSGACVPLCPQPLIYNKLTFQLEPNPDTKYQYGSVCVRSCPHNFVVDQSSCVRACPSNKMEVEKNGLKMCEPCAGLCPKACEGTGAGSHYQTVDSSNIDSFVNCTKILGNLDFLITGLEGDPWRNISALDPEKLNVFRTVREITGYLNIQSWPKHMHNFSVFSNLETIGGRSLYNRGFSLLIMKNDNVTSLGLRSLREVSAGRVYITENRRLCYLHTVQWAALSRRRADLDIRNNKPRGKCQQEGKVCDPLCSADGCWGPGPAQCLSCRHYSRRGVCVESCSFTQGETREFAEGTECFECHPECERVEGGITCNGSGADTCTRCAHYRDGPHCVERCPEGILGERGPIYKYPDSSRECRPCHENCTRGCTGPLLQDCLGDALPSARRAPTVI
# T2: Chimeric chicken Her3-human domain 2 (AA207-328 human) (chicken/human chimera)
# T2 construct: Transmembrane and extracellular regions, on HEK293 cells
# T2 chain: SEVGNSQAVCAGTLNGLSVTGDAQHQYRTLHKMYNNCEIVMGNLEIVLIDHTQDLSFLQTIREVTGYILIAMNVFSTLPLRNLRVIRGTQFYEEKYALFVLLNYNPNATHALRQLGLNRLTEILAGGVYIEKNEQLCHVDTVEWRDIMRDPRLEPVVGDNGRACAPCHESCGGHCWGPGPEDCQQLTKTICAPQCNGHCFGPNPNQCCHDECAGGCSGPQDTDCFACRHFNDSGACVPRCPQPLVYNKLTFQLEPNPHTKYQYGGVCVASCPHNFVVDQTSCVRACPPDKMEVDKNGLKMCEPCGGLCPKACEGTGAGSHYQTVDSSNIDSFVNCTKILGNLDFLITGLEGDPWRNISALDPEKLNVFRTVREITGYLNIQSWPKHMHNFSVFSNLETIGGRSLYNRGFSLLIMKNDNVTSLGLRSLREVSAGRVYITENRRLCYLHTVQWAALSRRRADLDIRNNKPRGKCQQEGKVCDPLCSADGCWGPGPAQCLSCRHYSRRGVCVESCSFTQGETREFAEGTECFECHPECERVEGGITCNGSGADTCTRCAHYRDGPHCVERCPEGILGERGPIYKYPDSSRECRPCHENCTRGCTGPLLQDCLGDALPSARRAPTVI
# Tests used:
# [1] = biological target: T3, human HER3-Fc (R&D Systems, 348-RB) (human, UniProt P21860 20-643); assay: SPR, HER3-Fc captured by anti-Fc
# T3 construct: Bought; also called hHER3-Fc; Fc-HER3; Fc part of the bought chimera not given, not described
# [2] = biological target: T3, human HER3-Fc (R&D Systems, 348-RB); assay: HRG competition alphascreen
# [3] = biological target: T4, hHER3 full length (human, UniProt P21860 20-1342); assay: cell-based or functional assay
# [4] = biological target: T3, human HER3-Fc (R&D Systems, 348-RB); assay: HRG competition alphascreen; remark: listed apart in the source
# [5] = biological target: T3, human HER3-Fc (R&D Systems, 348-RB); assay: HRG competition alphascreen; remark: listed apart in the source
# [6] = biological target: T4, hHER3 full length; assay: FACS competition with HRG1-β1-EGF, CHO-HER3
# [7] = biological target: T1, Chimeric chicken Her3-human domain 1 …; assay: FACS, HEK293 with chimeric HER3
# [8] = biological target: T5, hHER3 ECD (human HER3 extracellular domain) (human, UniProt P21860 20-643); assay: SPR off rate
# T5 construct: also called recombinant HER3-ECD
# [9] = biological target: T5, hHER3 ECD (human HER3 extracellular …); assay: SPR off rate on HER3-ECD, periplasmic extract
# [10] = biological target: T5, hHER3 ECD (human HER3 extracellular …); assay: off rate screening on recombinant HER3-ECD
# [11] = biological target: T2, Chimeric chicken Her3-human domain 2 …; assay: FACS, HEK293 with chimeric HER3
# [12] = biological target: T3, human HER3-Fc (R&D Systems, 348-RB); assay: 18G11 competition alphascreen
# [13] = biological target: T3, human HER3-Fc (R&D Systems, 348-RB); assay: alphascreen, competitor biotinylated 18G11
# [14] = biological target: T4, hHER3 full length; assay: cell-based or functional assay; remark: listed apart in the source
# [15] = biological target: T3, human HER3-Fc (R&D Systems, 348-RB); assay: SPR, HER3-Fc captured; heterogenous curve, main interaction (89%)
Binder,Kd [1] [nM],kon [1] [M⁻¹ s⁻¹],IC50 [2],"IC50 pHER3, HRG1-β1 stimulated MCF7 [3] [M]",% inhibition [4] [%],IC50 [4] [nM],IC50 [5] [nM],IC50 [6] [nM],binding result [7],koff [8],koff [9],koff [10] [s⁻¹],binding result [11],IC50 [12] [nM],IC50 [13] [nM],"IC50 pHER3 blocking, HRG stimulated MCF7 [14] [M]",Kd [15] [nM],kon [15] [M⁻¹ s⁻¹]
"04C07 (VHH, also called HER3MS04C07; HER3MS004C07) VHH: EVQLVESGGGLVQAGGSLRLSCAASGFTFSSYPMSWVRQAPGKGPAWVSTVSPGGITTSYADSVKGRFTISRDNAKNTLYLQMNSLKPEDTAVYYCLRDLNNRGQGTQVTVSS",0.22,1.2e+06,0.27 nM and 0.69 nM,6.25e-09,86.7,0.264,0.18,4.26,binds,–,–,–,–,–,–,–,–,–
"18G11 (VHH, c-myc, His6-tagged form as expressed; also called HER3MS18G11; HER3MS018G11) VHH: EVQLVESGGGLVQPGGSLRLSCAASGTLFKINAMGWYRQAPGKRRELVALITSSDTTDYAESVEGRFTISRDNTWNAVYLQMNSLKPEDTAVYYCHSDHYSMGVPEKRVIMYGQGTQVTVSS",10,26000,–,–,–,–,–,–,–,0.00043 s⁻¹ and 0.00047 s⁻¹,0.00062 s⁻¹ and 0.00077 s⁻¹,0.00061,binds,4.4,3.2,2.91e-08,–,–
"17C08 (VHH, also called 17C8) VHH: EVQLVESGGGLMQAGDSLRLSCAASGRAFSSYALGWFRRAPGKERECVAATDRLGDNTYFPDSVKGRFTISRDNAKNTLYLQMNNLKPEDTAVYYCAAGAVRYGVSTSPMNYNYWGQGTQVTVSS",–,–,–,–,–,–,–,–,binds,–,–,–,binds,–,–,–,48,8400
